Experimental data published in paper PMC7996396, “Affinity and Structural Analysis of the U1A RNA Recognition Motif with Engineered Methionines to Improve Experimental Phasing”.

What was measured:
[1] = biological target: TBP6.9(F34M/F37M/F77M) 7Se-Met (Homo sapiens (lab-evolved)) (UniProt P09012); test: ITC; details: ITC: 50 mM Na-HEPES pH 7.5, 50 mM NaCl, 50 mM KCl, 2 mM MgCl2, 5 mM beta-mercaptoethanol, 20 C; protein in syringe, RNA in cell
[2] = biological target: TBP6.9 (Homo sapiens (lab-evolved)) (UniProt P09012); test: ITC; details: ITC: 50 mM Na-HEPES pH 7.5, 50 mM NaCl, 50 mM KCl, 2 mM MgCl2, 5 mM beta-mercaptoethanol, 20 C; protein in syringe, RNA in cell
[3] = biological target: dmU1A(F37M/F77M) 7Se-Met (Homo sapiens, UniProt P09012 1-98, Y31H;Q36R;F37M;F77M); test: ITC; Se-Met protein; ITC: 50 mM Na-HEPES pH 7.5, 50 mM NaCl, 50 mM KCl, 2 mM MgCl2, 5 mM beta-mercaptoethanol, 20 C; protein in syringe, RNA in cell; details: protein: recombinant; tags: N-terminal 6xHis removed with TEV protease; hairpin, loop closed by C65-G76
[4] = biological target: dmU1A (U1A RRM1 Y31H/Q36R) (Homo sapiens, UniProt P09012 1-98, Y31H;Q36R); test: ITC; ITC: 50 mM Na-HEPES pH 7.5, 50 mM NaCl, 50 mM KCl, 2 mM MgCl2, 5 mM beta-mercaptoethanol, 20 C; protein in syringe, RNA in cell; details: protein: recombinant; tags: N-terminal 6xHis removed with TEV protease; hairpin, loop closed by C65-G76
Sequence of dmU1A (U1A RRM1 Y31H/Q36R) (P09012 1-98 Y31H/Q36R): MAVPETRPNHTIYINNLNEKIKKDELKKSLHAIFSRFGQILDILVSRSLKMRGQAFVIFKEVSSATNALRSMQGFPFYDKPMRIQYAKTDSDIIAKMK

Sequence of TBP6.9 (Homo sapiens (lab-evolved)) (P09012 whole entry, stated change not applied): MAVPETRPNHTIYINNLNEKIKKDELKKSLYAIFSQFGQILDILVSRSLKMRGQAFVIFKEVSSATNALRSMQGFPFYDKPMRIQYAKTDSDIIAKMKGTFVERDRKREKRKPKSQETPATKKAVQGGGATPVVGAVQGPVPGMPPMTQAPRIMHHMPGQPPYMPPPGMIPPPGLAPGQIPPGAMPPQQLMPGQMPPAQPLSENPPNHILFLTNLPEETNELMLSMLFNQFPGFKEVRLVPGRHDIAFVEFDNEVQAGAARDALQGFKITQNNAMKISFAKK
Sequence of TBP6.9(F34M/F37M/F77M) 7Se-Met (Homo sapiens (lab-evolved)) (P09012 whole entry, stated change not applied): as above
Sequence of dmU1A(F37M/F77M) 7Se-Met (P09012 1-98 Y31H/Q36R/F37M/F77M): as the sequence (P09012 1-98 Y31H/Q36R) above, with F37M, F77M counted along it

Molecule | Kd [1] [nM] | Kd [2] [nM] | Kd [3] [nM] | Kd [4] [nM]
GCAGAUCUGAGCCCGAAAGGAGCUCUCUGC [GNRA-TAR 30-mer] | 69.8 | 87.8 |  | 
GGAGAUCUGAGCCUGGGAGCUCUCUCC [HIV-1 TAR 27-mer] | 13.5 | 8.5 |  | 
CGAAUCCAUUGCACUCCGGAUUCG (structured_RNA) [hpII 24-mer (U1 snRNA hairpin II)] |  |  | 59.7 ± 11.4 | 152 ± 7
